The subject of series [1] is Escherichia coli. Briefly: Antimicrobial activity Escherichia coli DH5alpha expressing metallo-beta-lactamase VIM-11 by agar macrodilution method. Type of series: functional.
Series [2] has as its system Escherichia coli. Description: Antimicrobial activity Escherichia coli DH5alpha expressing beta lactamase VIM-2 by agar macrodilution method. Type of series: functional.
Series [3] concerns CC(=O)OCC1=C(C(=O)O)N2C(=O)[C@@H](NC(=O)Cc3cccs3)[C@H]2SC1. Briefly: (§1) Activity at Pseudomonas aeruginosa COL-1 metallo-beta lactamase VIM-2 by spectrometry.
For series [4], the system named is CC(C)(O/N=C(\C(=O)N[C@@H]1C(=O)N2C(C(=O)[O-])=C(C[n+]3ccccc3)CS[C@H]12)c1csc(N)n1)C(=O)O. The description is as §1.
For series [5], the system named is CC1(C)S[C@@H]2[C@H](NC(=O)[C@H](N)c3ccccc3)C(=O)N2[C@H]1C(=O)O. Described as §1.
Series [6] concerns CO/N=C(\C(=O)N[C@@H]1C(=O)N2C(C(=O)O)=C(COC(C)=O)CS[C@H]12)c1csc(N)n1. The series is described as §1.
In series [7] the test system is CO/N=C(\C(=O)N[C@@H]1C(=O)N2C(C(=O)O)=C(COC(N)=O)CS[C@H]12)c1ccco1. The series is described as §1.
Series [8] concerns CO/N=C(\C(=O)N[C@@H]1C(=O)N2C(C(=O)[O-])=C(C[n+]3cccc4c3CCC4)CS[C@H]12)c1csc(N)n1. Described as §1.
In series [9] the test system is CO[C@@]1(NC(=O)Cc2cccs2)C(=O)N2C(C(=O)O)=C(COC(N)=O)CS[C@@H]21. The series is described as §1.
In series [10] the test system is C[C@@H](O)[C@H]1C(=O)N2C(C(=O)O)=C(S[C@@H]3CN[C@H](C(=O)N(C)C)C3)[C@H](C)[C@H]12. The description is as §1.
Series [11] relates to O=C(Cc1cccs1)N[C@@H]1C(=O)N2C(C(=O)O)=C(/C=C/c3ccc([N+](=O)[O-])cc3[N+](=O)[O-])CS[C@H]12. The series is described as §1.
Series [12] deals with CC(=O)OCC1=C(C(=O)O)N2C(=O)[C@@H](NC(=O)Cc3cccs3)[C@H]2SC1. Description: (§2) Ratio of Kcat to Km for Pseudomonas aeruginosa COL-1 metallo-beta lactamase VIM-2.
Series [13] deals with CC(C)(O/N=C(\C(=O)N[C@@H]1C(=O)N2C(C(=O)[O-])=C(C[n+]3ccccc3)CS[C@H]12)c1csc(N)n1)C(=O)O. The description is as §2.
For series [14], the system named is CC1(C)S[C@@H]2[C@H](NC(=O)[C@H](N)c3ccccc3)C(=O)N2[C@H]1C(=O)O. Described as §2.
Series [15] has as its system CO/N=C(\C(=O)N[C@@H]1C(=O)N2C(C(=O)O)=C(COC(C)=O)CS[C@H]12)c1csc(N)n1. The series is described as §2.
The test system of series [16] is CO/N=C(\C(=O)N[C@@H]1C(=O)N2C(C(=O)O)=C(COC(N)=O)CS[C@H]12)c1ccco1. The series is described as §2.
For series [17], the system named is CO[C@@]1(NC(=O)Cc2cccs2)C(=O)N2C(C(=O)O)=C(COC(N)=O)CS[C@@H]21. The description is as §2.
In series [18] the test system is C[C@@H](O)[C@H]1C(=O)N2C(C(=O)O)=C(S[C@@H]3CN[C@H](C(=O)N(C)C)C3)[C@H](C)[C@H]12. The series is described as §2.
In series [19] the test system is O=C(Cc1cccs1)N[C@@H]1C(=O)N2C(C(=O)O)=C(/C=C/c3ccc([N+](=O)[O-])cc3[N+](=O)[O-])CS[C@H]12. Described as §2.
Series [20] has as its system Escherichia coli. Briefly: Antimicrobial activity Escherichia coli DH5alpha harboring bacteriophage T4 plasmid alpha omega by agar macrodilution method. It counts as functional.
For the next series, the system named is Pseudomonas aeruginosa. Briefly: Ratio of Kcat to Km for Pseudomonas aeruginosa COL-1 metallo-beta lactamase VIM-2 over Kcat to Km for Pseudomonas aeruginosa M5109 metallo-beta-lactamase VIM-11.
In series [21] the test system is CC(=O)OCC1=C(C(=O)O)N2C(=O)[C@@H](NC(=O)Cc3cccs3)[C@H]2SC1. Description: (§3) Activity at Pseudomonas aeruginosa M5109 metallo-beta-lactamase VIM-11 by spectrometry.
In series [22] the test system is CC(C)(O/N=C(\C(=O)N[C@@H]1C(=O)N2C(C(=O)[O-])=C(C[n+]3ccccc3)CS[C@H]12)c1csc(N)n1)C(=O)O. The series is described as §3.
The subject of series [23] is CC1(C)S[C@@H]2[C@H](NC(=O)[C@H](N)c3ccccc3)C(=O)N2[C@H]1C(=O)O. The description is as §3.
Series [24] relates to CO/N=C(\C(=O)N[C@@H]1C(=O)N2C(C(=O)O)=C(COC(C)=O)CS[C@H]12)c1csc(N)n1. Described as §3.
In series [25] the test system is CO/N=C(\C(=O)N[C@@H]1C(=O)N2C(C(=O)O)=C(COC(N)=O)CS[C@H]12)c1ccco1. The description is as §3.
For series [26], the system named is CO/N=C(\C(=O)N[C@@H]1C(=O)N2C(C(=O)[O-])=C(C[n+]3cccc4c3CCC4)CS[C@H]12)c1csc(N)n1. Described as §3.
Series [27] concerns CO[C@@]1(NC(=O)Cc2cccs2)C(=O)N2C(C(=O)O)=C(COC(N)=O)CS[C@@H]21. The series is described as §3.
Series [28] relates to C[C@@H](O)[C@H]1C(=O)N2C(C(=O)O)=C(S[C@@H]3CN[C@H](C(=O)N(C)C)C3)[C@H](C)[C@H]12. The description is as §3.
Series [29] concerns O=C(Cc1cccs1)N[C@@H]1C(=O)N2C(C(=O)O)=C(/C=C/c3ccc([N+](=O)[O-])cc3[N+](=O)[O-])CS[C@H]12. The series is described as §3.
The test system of series [30] is CC(=O)OCC1=C(C(=O)O)N2C(=O)[C@@H](NC(=O)Cc3cccs3)[C@H]2SC1. Briefly: (§4) Ratio of Kcat to Km for Pseudomonas aeruginosa M5109 metallo-beta-lactamase VIM-11.
Series [31] relates to CC(C)(O/N=C(\C(=O)N[C@@H]1C(=O)N2C(C(=O)[O-])=C(C[n+]3ccccc3)CS[C@H]12)c1csc(N)n1)C(=O)O. The description is as §4.
Series [32] has as its system CC1(C)S[C@@H]2[C@H](NC(=O)[C@H](N)c3ccccc3)C(=O)N2[C@H]1C(=O)O. Described as §4.
In series [33] the test system is CO/N=C(\C(=O)N[C@@H]1C(=O)N2C(C(=O)O)=C(COC(C)=O)CS[C@H]12)c1csc(N)n1. The description is as §4.
Series [34] relates to CO/N=C(\C(=O)N[C@@H]1C(=O)N2C(C(=O)O)=C(COC(N)=O)CS[C@H]12)c1ccco1. Described as §4.
The subject of series [35] is CO/N=C(\C(=O)N[C@@H]1C(=O)N2C(C(=O)[O-])=C(C[n+]3cccc4c3CCC4)CS[C@H]12)c1csc(N)n1. The description is as §4.
Series [36] relates to CO[C@@]1(NC(=O)Cc2cccs2)C(=O)N2C(C(=O)O)=C(COC(N)=O)CS[C@@H]21. Described as §4.
Series [37] has as its system C[C@@H](O)[C@H]1C(=O)N2C(C(=O)O)=C(S[C@@H]3CN[C@H](C(=O)N(C)C)C3)[C@H](C)[C@H]12. The series is described as §4.
Series [38] concerns O=C(Cc1cccs1)N[C@@H]1C(=O)N2C(C(=O)O)=C(/C=C/c3ccc([N+](=O)[O-])cc3[N+](=O)[O-])CS[C@H]12. The description is as §4.

≈ marks a conversion by molar mass, not a printed value.

For the compound `CC1(C)S[C@@H]2[C@H](NC(=O)Cc3ccccc3)C(=O)N2[C@H]1C(=O)O` [PENICILLIN G], the MIC in the series on Escherichia coli [1] and against Escherichia coli [2] was 128 µg/mL (≈ 383 µM) throughout.

Take “Metallo-beta-lactamase VIM-2 (Pseudomonas aeruginosa) (from UniProt D1MEN9)”: the Km – broadly, the concentration of substrate that gives half-maximal velocity – worked out at 6.2 µM in series [3]; 88.2 µM in series [4]; 136 µM in [5]; 13.4 µM in series [6]; 5.5 µM in [7]; 171 µM in [8]. Besides, the values for the Michaelis-Menten constant (Km) in [10] and in series [11] were 24.5 µM and 13.8 µM, respectively. In addition, the turnover number (kcat) – broadly, the maximal rate divided by the concentration of active sites – turned out to be 96.4 s⁻¹ in [3]; 61 s⁻¹ in [6]; 30.5 s⁻¹ in series [7]; 48.1 s⁻¹ in series [8]; 10 s⁻¹ in series [9]; 3.5 s⁻¹ in series [10]. Also, the turnover number (kcat) in series [11] came out at 206 s⁻¹. The kcat/Km in series [12] stood at 1.6 ×10⁶ /M/s; in series [13], 3.2 ×10⁶ /M/s; in series [14], 2.2 ×10⁶ /M/s; in series [15] it was 4.6 ×10⁶ /M/s; in series [16], 5.5 ×10⁶ /M/s; in series [17], 1 ×10⁶ /M/s. The kcat/Km in series [18] was 1.4 ×10⁶ /M/s; in [19], 1.5 ×10⁶ /M/s.

For `CO/N=C(\C(=O)N[C@@H]1C(=O)N2C(C(=O)O)=C(COC(C)=O)CS[C@H]12)c1csc(N)n1` [CEFOTAXIME], the MIC in the series on Escherichia coli [20] came out at 0.03 µg/mL (≈ 0.0659 µM); against Escherichia coli [1] it was 4 µg/mL (≈ 8.78 µM); in the series on Escherichia coli [2] it was 8 µg/mL (≈ 17.6 µM). Also, the kcat/Km ratio in the series with Pseudomonas aeruginosa came to 0.78.

Turning to “Metallo-beta-lactamase VIM-11 (Pseudomonas aeruginosa) (from UniProt C7DTR7)”, the Km was 4.5 µM in series [21]; 110 µM in [22]; 109 µM in series [23]; 11.4 µM in series [24]; 5.5 µM in [25]; 183 µM in series [26]. Also, the Michaelis constant (Km) was 7.4 µM in series [27], 22.7 µM in series [28] and 8.2 µM in [29]. The catalytic constant (kcat) is 81 s⁻¹ in series [21]; 14 s⁻¹ in series [22]; 190 s⁻¹ in [23]; 41.3 s⁻¹ in series [24]; 27 s⁻¹ in [25]; 102 s⁻¹ in series [26]. Further, the kcat in series [27] worked out at 6.4 s⁻¹; in series [28], 3.2 s⁻¹; in series [29], 129 s⁻¹. In addition, the kcat/Km in series [30] is 1.8 ×10⁶ /M/s; in series [31], 1.3 ×10⁶ /M/s; in series [32], 1.8 ×10⁶ /M/s; in series [33] it was 3.6 ×10⁶ /M/s; in series [34], 4.9 ×10⁶ /M/s; in series [35] it was 5.6 ×10⁶ /M/s. Moreover, the kcat/Km in series [36] was found to be 8.6 ×10⁶ /M/s; in series [37] it was 1.4 ×10⁶ /M/s; in series [38] it was 1.6 ×10⁶ /M/s.

Consider `CO/N=C(\C(=O)N[C@@H]1C(=O)N2C(C(=O)O)=C(COC(N)=O)CS[C@H]12)c1ccco1` [CEFUROXIME], for which the MIC in the series on Escherichia coli [20] came out at 4 µg/mL (≈ 9.43 µM); in the series on Escherichia coli [1], 64 µg/mL (≈ 151 µM); with Escherichia coli [2], 128 µg/mL (≈ 302 µM). Further, the kcat/Km ratio with Pseudomonas aeruginosa was 0.89.

On to `O=C(Cc1cccs1)N[C@@H]1C(=O)N2C(C(=O)O)=C(/C=C/c3ccc([N+](=O)[O-])cc3[N+](=O)[O-])CS[C@H]12`, for which the kcat/Km ratio with Pseudomonas aeruginosa was 1.06.

`C[C@@H](O)[C@H]1C(=O)N2C(C(=O)O)=C(S[C@@H]3CN[C@H](C(=O)N(C)C)C3)[C@H](C)[C@H]12` [MEROPENEM]: the values for the MIC against Escherichia coli [20], against Escherichia coli [1] and in the series with Escherichia coli [2] were 0.03 µg/mL (≈ 0.0782 µM), 0.06 µg/mL (≈ 0.156 µM) and 0.125 µg/mL (≈ 0.326 µM), respectively. Besides, the kcat/Km ratio in the series with Pseudomonas aeruginosa was 1.

These data come from ChEMBL document CHEMBL1255351, “Biochemical characterization of metallo-beta-lactamase VIM-11 from a Pseudomonas aeruginosa clinical strain” (2008).
